Here are results for 2 substances from paper PMC6362458 (Journal of the American Chemical Society, 2017).

As usually defined, the Solubility is the concentration that dissolves in the medium under given conditions. Higher therefore signals much dissolved substance.

Data set [1] in a line: Isoelectric point determination by IEF gel electrophoresis. Type of data set: physicochemical. To be noted: data not shown.
For data set [2] the following is noted: cited from earlier work.
The nature of data set [3]: Photolysis of P2-insulin suspension in pH 7.2 PBS. Type of data set: physicochemical.
Data set [4] is described as follows: Visual precipitation on pH shift and clarification on photolysis. Type of data set: physicochemical. The note with it: 75µM, 10 minutes 365nm LED (1.84 mW/cm^2).
For data set [5] the following is noted: 2 h.

As for insulin, the “pI of insulin reacted with uncharged DMNPE derivative vs native insulin” value in data set [1] is given as 5.4. In data set [2], the “pI (isoelectric point)” value is 5.4.

Regarding “P2-Insulin: insulin with two pyrrolidines linked via the photocleavable DMNPE group; likely mixture of modified carboxyl sites”, the “Insulin released from unirradiated control suspension” value in data set [3] (pH 7.2 PBS suspension processed identically, no 365 nm irradiation, IEF gel) is on record as “no insulin released”. In addition, in data set [3] (pH 7.2 PBS, IEF gel of supernatant), the “P2-insulin in supernatant of irradiated suspension” value is “no detectable P2-insulin”. Moreover, the “Appearance of pH 7.2 suspension after irradiation” value in data set [4] is recorded as “substantially clarified the suspension”. The “Solubility at pH 4” value in data set [5] came out at 216 µM.
